Measured values reported in patent US20240148892A1 (DUALITY BIOLOGICS SUZHOU, published 2024).
Each block holds one binder with its values, some of them ahead of it.

What was measured:
[1] = target: T1, human full-length B7H3 expressed on MCF-7 cells (human, UniProt Q5ZPR3 29-534); assay: cell-based or functional assay
T1 sequence: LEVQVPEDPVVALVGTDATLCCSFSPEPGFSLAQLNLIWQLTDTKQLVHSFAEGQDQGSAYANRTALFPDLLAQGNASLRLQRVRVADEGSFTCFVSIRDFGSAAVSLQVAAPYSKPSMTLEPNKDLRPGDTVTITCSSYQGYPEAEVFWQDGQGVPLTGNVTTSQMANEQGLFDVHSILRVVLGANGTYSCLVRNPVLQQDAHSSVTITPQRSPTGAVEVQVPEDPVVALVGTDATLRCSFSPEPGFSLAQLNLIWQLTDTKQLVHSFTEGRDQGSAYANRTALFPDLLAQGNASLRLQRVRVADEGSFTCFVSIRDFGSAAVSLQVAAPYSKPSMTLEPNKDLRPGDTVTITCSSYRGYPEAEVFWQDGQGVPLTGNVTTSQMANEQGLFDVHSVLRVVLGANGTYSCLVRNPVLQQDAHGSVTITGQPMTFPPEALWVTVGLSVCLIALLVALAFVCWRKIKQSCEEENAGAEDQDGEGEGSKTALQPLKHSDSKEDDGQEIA

[2] = target: T2, cynomolgus monkey B7H3 on transfected FlpinCHO cells (cynomolgus monkey); assay: flow cytometry (FACS) on FlpinCHO cells transfected with cynomolgus monkey B7H3
T2 construct: whole, on cells; also called W3XX088-FlpinCHO.cPro1.pool
Description: FACS was used to detect the binding of antibodies to cynomolgus monkey B7H3. FlpinCHO cells were transfected with cynomolgus monkey B7H3 (W3XX088-FlpinCHO.cProl.pool) (1×10⁵ cells/well), and the transfected cells were incubated with various concentrations of antibodies (3.16-fold serially diluted with 1×DPBS/1% BSA from 50 nM to 0.0005 nM) in a volume of 100 μL/well in a refrigerator set to 4 ° C. for 1 h. Anti-human B7H3 reference antibody enoblituzumab (MacroGeneics) was used as a positive control. Human IgG1 isotype antibody was used as a negative control. After washing the cells with 1×DPBS/1% BSA, Alexa 647 goat anti-human antibody (diluted in a 1:500 ratio in 1×DPBS/1% BSA) was added. The cells were incubated in a refrigerator set to 4° C. for 0.5 h in the dark. The mean fluorescence intensity (MFI) of the cells was measured by a flow cytometry and analyzed by FlowJo. EC₅₀ values were calculated by four-parameter non-linear regression analysis using GraphPad Prism 7 software.

[3] = target: T3, Cynomolgus monkey B7-H3/CD276 protein, His tag (cynomolgus monkey); assay: SPR (Biacore 8K), antibody captured on anti-human Fc IgG, cynomolgus monkey B7H3 as analyte, 1:1 model
T3 construct: Bought protein; 49 kDa used in the SPR calculation; also called ACRO B73-C52Ha
Description: The affinity of antibodies for cynomolgus monkey B7H3 was determined using surface plasmon resonance (SPR). The affinity of antibodies for cynomolgus monkey B7H3 was determined by Biacore 8K. An activator was prepared by mixing 400 mM EDC and 100 mM NHS (GE) immediately prior to injection into the channel. The CMS sensor chip was activated for 420 seconds with the activator. Goat anti-human Fc IgG (30 μg/mL in 10 mM NaAc, pH 4.5) was then injected into the channel at a flow rate of 10 μL/min for 420 seconds. The chip was deactivated by 1 M ethanolamine hydrochloric acid. The antibodies diluted in running buffer (1×HBS-EP+) were injected into the channel at a flow rate of 10 μL/min for 30 seconds. […] Glycine (10 mM, pH 1.5) was injected as regeneration buffer after the dissociation phase.
The sensorgrams for the reference channel and the buffer channel were subtracted from the test sensorgrams. […] The molecular weight of the cynomolgus monkey B7H3 used in the calculation was 49 kDa.
The experimental data were fitted by a 1:1 binding model bundled with the Biacore 8K evaluation software.

[4] = target: T1, human full-length B7H3 expressed on …; assay: cell-based or functional assay; remark: listed apart in the source
[5] = target: T4, Human B7-1 protein, His Tag (human, UniProt P33681 35-242); assay: ELISA, B7 family protein immobilized on plate, serially diluted antibody
T4 construct: Bought protein; also called ACRO B71-H5228; not shown: His tag
T4 sequence (looked up): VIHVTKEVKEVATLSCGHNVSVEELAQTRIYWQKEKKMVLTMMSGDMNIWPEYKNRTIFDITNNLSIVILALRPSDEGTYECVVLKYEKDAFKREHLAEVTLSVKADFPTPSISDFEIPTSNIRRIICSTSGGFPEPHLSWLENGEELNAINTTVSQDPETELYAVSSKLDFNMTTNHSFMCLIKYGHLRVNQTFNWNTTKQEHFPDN
Description: (§1) Human PD-Ll protein (see the table above), human B7-H2 protein, human B7-H3 protein, human B7-H4 protein, human B7-H5 protein, human B7-H6 protein, human B7-1 protein, human B7-2 protein, human PD-L2 protein, human B7-H7 protein, and human BTNL2 protein were separately immobilized on 96-well plates by incubation at 4° C. overnight. The 96-well plates were then blocked by incubation with 1% BSA in PBS at 37° C. for 1 h. After blocking, the 96-well plates were washed 3 times with PBST (PBS containing 0.05% Tween 20). […] After incubation, the 96-well plates were washed 3 times with PBST, incubated with a secondary antibody (see the table above) in binding buffer at 37° C. for 1 h, and then washed again. TMB was added for color development, and the reaction was stopped by 1 M H₂SO₄.

Human B7-H6 = target: T5, Human B7-H6 (human, UniProt Q68D85 25-262); assay: as above
T5 construct: Bought protein; also called human B7-H6 protein; ACRO B76-H52H8
T5 sequence (looked up): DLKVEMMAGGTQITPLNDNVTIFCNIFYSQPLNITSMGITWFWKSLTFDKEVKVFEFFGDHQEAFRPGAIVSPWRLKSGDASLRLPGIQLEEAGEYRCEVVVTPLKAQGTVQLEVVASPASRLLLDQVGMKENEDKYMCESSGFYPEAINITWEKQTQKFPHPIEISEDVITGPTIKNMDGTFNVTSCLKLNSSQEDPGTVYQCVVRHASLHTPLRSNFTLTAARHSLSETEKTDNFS
Description: as §1

- Antibody internalization EC50 (nM), MCF-7 cells, high-content imaging [1]: 0.51 nM
- EC50 [2]: 5.25 nM
- Kd [3]: 0.0564 nM
- koff [3]: 2.94e-05 s⁻¹
- kon [3]: 521000 M⁻¹ s⁻¹
B1: W301088-1.145.16-xIgG1KV320 (antibody, V domains shown)
VH: DVQLQESGPGLVKPSQSLSLTCTVTDYSITGDYAWNWIRQFPGNKLEWMGYISYSGSTSYNPSLQSRISITRDTSKNQFFLQLNSVTSEDTATYFCARSLGRRWYFVVWGAGTTVTVSA
VL: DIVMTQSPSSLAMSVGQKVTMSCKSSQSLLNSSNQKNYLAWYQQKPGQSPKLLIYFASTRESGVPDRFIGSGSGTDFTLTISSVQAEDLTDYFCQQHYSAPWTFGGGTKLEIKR

B2: W301088-1.145.16-z3-p1-uIgG1KV320 (antibody, V domains shown)
VH: QVQLQESGPGLVKPSQTLSLTCTVTDYSITGDYAWNWIRQHPGKGLEWIGYISYSGSTSYNPSLQSRVTISRDTSKNQFSLKLSSVTAADTAVYFCARSLGRRWYFVVWGQGTTVTVSS
VL: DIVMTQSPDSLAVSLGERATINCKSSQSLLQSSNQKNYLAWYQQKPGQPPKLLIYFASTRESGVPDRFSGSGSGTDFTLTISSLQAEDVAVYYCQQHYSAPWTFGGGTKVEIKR
notes: Humanized, PTM-removed (VL N027dQ) human IgG1 LALA kappa antibody; also called WBP301088; W301088-z3-p1
- Antibody internalization EC50 (nM), MCF-7 cells, high-content imaging [1]: 0.44 nM
- EC50 [2]: 4.68 nM
- Antibody internalization EC50, MCF-7 cells (value in running text, differs from Table 16) [4]: 0.51 nM
- binding result [5]: no binding
- binding result (Human B7-H6): no binding
- Kd [3]: 0.0574 nM
- koff [3]: 3.02e-05 s⁻¹
- kon [3]: 527000 M⁻¹ s⁻¹

- Antibody internalization EC50 (nM), MCF-7 cells, high-content imaging [1]: 1.95 nM
- EC50 [2]: 9.58 nM
- Kd [3]: 0.441 nM
- koff [3]: 8.14e-05 s⁻¹
- kon [3]: 185000 M⁻¹ s⁻¹
B3: Enoblituzumab (MacroGenics) (antibody, V domains shown)
VH: EVQLVESGGGLVQPGGSLRLSCAASGFTFSSFGMHWVRQAPGKGLEWVAYISSDSSAIYYADTVKGRFTISRDNAKNSLYLQMNSLRDEDTAVYYCGRGRENIYYGSRLDYWGQGTTVTVSS
VL: DIQLTQSPSFLSASVGDRVTITCKASQNVDTNVAWYQQKPGKAPKALIYSASYRYSGVPSRFSGSGSGTDFTLTISSLQPEDFATYYCQQYNNYPFTFGQGTKLEIKR
